# Data: article PMC11335228
# Where “and” joins values, the source holds several entries; their conditions need not be identical. Equal values may be shown once.
# Tests used:
# Conditions in all cases: remark: other sources report otherwise
# [1] = target: T1, DAP12, endogenous in macrophage-like differentiated THP-1 cells (human (endogenous in THP-1)), O43914; assay: non-reducing SDS-PAGE and western immunoblotting; membranes of differentiated THP-1 cells (wt and TREM2 ko; with or without MG132, lactacystin or chloroquine for 4 h); SDS sample buffer without DTT, 5 min 95 °C
# [2] = target: T1, DAP12, endogenous in macrophage-like …; assay: as above; remark: listed apart in the source
# [3] = target: T2, DNAX-activating protein of 12 kDa (DAP12) wt, overexpressed in HEK293 cells, O43914; assay: SDS-PAGE and western immunoblotting; HEK293 cells transiently expressing DAP12 wt or DAP12 D50A with or without TREM2 (blots of Fig. 5A); SDS resistant oligomers
# [4] = target: T2, DNAX-activating protein of 12 kDa …; assay: SDS-PAGE and western immunoblotting; membranes of HEK293 Flp-In cells stably overexpressing DAP12 alone or with TREM2 wt or TREM2 K186N; with or without proteasome inhibitors (Suppl. Figure S3)
Binder,stoichiometry N [1],stoichiometry N [2],stoichiometry N [3],stoichiometry N [4]
"DAP12, endogenous in macrophage-like differentiated THP-1 cells, O43914 22-113 (natural protein) LRPVQAQAQSDCSCSTVSPGVLAGIVMGDLVLTVLIALAVYFLGRLVPRGRGAAEAATRKQRITETESPYQELQGQRSDVYSDLNTQRPYYK",2,3,,
"DNAX-activating protein of 12 kDa (DAP12) wt, overexpressed in HEK293 cells, O43914 22-113 (natural protein) LRPVQAQAQSDCSCSTVSPGVLAGIVMGDLVLTVLIALAVYFLGRLVPRGRGAAEAATRKQRITETESPYQELQGQRSDVYSDLNTQRPYYK",,,3 and 4,2 and 3
